Measured values as given in US20180185450A1 (Sanofi, published 2018).
Numbered stars: 1 amine (or outer) side, 2 acyl side, 3 side chain; on linkers, the order of the positions; unused ones are H or OH. Square brackets hold non-standard residues; d marks the D form. Side chains are listed from the residue outwards. Ends that are not written are not given here. γGlu = O=C(O)[C@H](CCC(=O)[*:2])N[*:1]; X70 = not defined here; x53 = not defined here; x70 = not defined here; x76 = not defined here; Aib = CC(C)(N)C(=O)O

Assays:
[1] = biological target: human glucagon receptor (human, UniProt P47871 26-477); assay: cell-based or functional assay
[2] = biological target: human GLP-1 receptor (human, UniProt P43220 24-463); assay: cell-based or functional assay

Chain of human glucagon receptor (P47871 26-477): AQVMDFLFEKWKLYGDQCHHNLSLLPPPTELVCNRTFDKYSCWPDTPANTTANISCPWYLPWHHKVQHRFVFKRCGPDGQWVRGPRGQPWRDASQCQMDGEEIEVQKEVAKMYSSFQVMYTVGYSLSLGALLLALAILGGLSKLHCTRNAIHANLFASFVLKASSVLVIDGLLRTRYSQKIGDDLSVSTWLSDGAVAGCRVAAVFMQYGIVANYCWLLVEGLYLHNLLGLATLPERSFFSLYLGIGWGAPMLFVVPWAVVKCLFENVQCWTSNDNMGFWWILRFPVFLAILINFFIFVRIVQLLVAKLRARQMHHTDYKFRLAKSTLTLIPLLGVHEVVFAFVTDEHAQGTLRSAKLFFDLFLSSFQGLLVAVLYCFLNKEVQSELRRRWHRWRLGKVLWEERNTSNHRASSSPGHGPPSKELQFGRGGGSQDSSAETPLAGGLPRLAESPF

Binder	EC50 hGlucagon-R (cAMP) [1]	EC50 hGLP-1R (cAMP) [2]
HXQGTFTSDLSKQKDEQRAKDFIEWLKAXGPSSGAPPPS (Aib at 2; K(γE-x70) at 14; dAla at 29; C-terminal NH2) [SEQ ID NO: 199]	7.2 pM	10.1 pM
HXQGTFTSDLSKQKDEQRAKLFIEWLKAXGPSSGAPPPS (Aib at 2; K(γE-x70) at 14; dAla at 29; C-terminal NH2) [SEQ ID NO: 200]	4.4 pM	4.6 pM
HXQGTFTSDLSKQKEEEAAQDFIEWLKAGGPSSGAPPPS (dSer at 2; K(γE-x53) at 14; C-terminal NH2) [SEQ ID NO: 16]	117 pM	2.8 pM
HXQGTFTSDLSKQKDEQAAKLFIEWLKAXGPSSGAPPPS (Aib at 2; K(γE-x76) at 14; dAla at 29; C-terminal NH2) [SEQ ID NO: 201]	29.6 pM	22.7 pM
H[Aib]QGTFTSDLSKQK([γGlu-x76])ESRAAQDFIEWLKAGGPSSGAPPPS-NH2 (reading uncertain) [SEQ ID NO: 202]	6.9 pM	26.2 pM
H[Aib]QGTFTSDLSKQK([γGlu-x76])ESRAAQLFIEWLKAGGPSSGAPPPS-NH2 (reading uncertain) [SEQ ID NO: 203]	13.1 pM	34.9 pM
HXQGTFTSDLSKQKESRAAQLFIEWLKAXGPSSGAPPPS (Aib at 2; K(γE-x76) at 14; dAla at 29; C-terminal NH2) [SEQ ID NO: 204]	12.5 pM	34.1 pM
HXQGTFTSDLSKQKESRRAQLFIEWLKAXGPSSGAPPPS (Aib at 2; K(γE-x70) at 14; dAla at 29; C-terminal NH2) [SEQ ID NO: 205]	5.2 pM	12.3 pM
H[Aib]QGTFTSDLSKQK([γGlu-x70])DEQKAKLFIEWLKSGGPSSGAPPPS-NH2 (reading uncertain) [SEQ ID NO: 206]	12.5 pM	3.2 pM
H[Aib]QGTFTSDLSKQK([γGlu-γGlu-x53])DEQRAKEFIEWLKSGGPSSGAPPPS-NH2 (reading uncertain) [SEQ ID NO: 207]	1.2 pM	1.1 pM
HSHGTFTSDLSKQK([γGlu-x53])ESRRAQDFIEWLKAGGPSSGAPPPS-NH2 (reading uncertain) [SEQ ID NO: 208]	1.3 pM	2 pM
HXQGTFTSDLSKQKDKRRAQDFIEWLKAXGPSSGAPPPS (Aib at 2; K(γE-x70) at 14; dAla at 29; C-terminal NH2) [SEQ ID NO: 209]	1.9 pM	5.4 pM
HXQGTFTSDLSKQKDKRRAQLFIEWLKAXGPSSGAPPPS (Aib at 2; K(γE-x70) at 14; dAla at 29; C-terminal NH2) [SEQ ID NO: 210]	3 pM	6.7 pM
HXQGTFTSDLSKQKEEEAAKDFIEWLKAGGPSSGAPPPS (dSer at 2; K(γE-x53) at 14; C-terminal NH2) [SEQ ID NO: 17]	93.1 pM	1.7 pM
HXQGTFTSDLSKQKDKRAAQLFIEWLKAXGPSSGAPPPS (Aib at 2; K(γE-x70) at 14; dAla at 29; C-terminal NH2) [SEQ ID NO: 211]	26.4 pM	15.5 pM
HXQGTFTSDLSKQKDKRAAQLFIEWLKAXGPSSGAPPPS (Aib at 2; K(γE-x76) at 14; dAla at 29; C-terminal NH2) [SEQ ID NO: 212]	6.6 pM	14.1 pM
H[Aib]QGTFTSDLSKQK([γGlu-x70])DEEAAKLFIEWLKAGGPSSGAPPPS-NH2 (reading uncertain) [SEQ ID NO: 213]	59.1 pM	2.7 pM
H[Aib]QGTFTSDLSKQK([γGlu-X70])DEEAARLFIEWLKAGGPSSGAPPPS-NH2 (reading uncertain) [SEQ ID NO: 214]	16 pM	4.2 pM
H[Aib]HGTFTSDLSKQK([γGlu-X70])EEEAARLFIEWLKAGGPSSGAPPPS-NH2 (reading uncertain) [SEQ ID NO: 217]	2.1 pM	4.3 pM
HXHGTFTSDLSKQKEEEAARLFIEWLKAGGPSSGAPPPS (dSer at 2; K(γE-X70) at 14; C-terminal NH2) [SEQ ID NO: 219]	3.7 pM	2.1 pM
HXHGTFTSDLSKQKDEEAARLFIEWLKAGGPSSGAPPPS (dSer at 2; K(γE-X70) at 14; C-terminal NH2) [SEQ ID NO: 220]	2.3 pM	2 pM
HXQGTFTSDLSKQKDEEAARLFIEWLKAGGPSSGAPPPS (dSer at 2; K(γE-x53) at 14; C-terminal NH2) [SEQ ID NO: 221]	9.2 pM	1.5 pM

Binder	EC50 hGlucagon-R (cAMP) [1]	EC50 hGLP-1R (cAMP) [2]
HXQGTFTSDLSKQKEEEAAXDFIEWLKAGGPSSGAPPPS (dSer at 2; K(γE-x53) at 14; Aib at 20; C-terminal NH2) [SEQ ID NO: 18]	152 pM	2.6 pM
HXQGTFTSDLSKQKDEEAARLFIEWLKAGGPSSGAPPPS (dSer at 2; K(γE-X70) at 14; C-terminal NH2) [SEQ ID NO: 222]	2.9 pM	1.8 pM
H[Aib]QGTFTSDLSKQK([γGlu-γGlu-x53])DEEAARLFIEWLKAGGPSSGAPPPS-NH2 (reading uncertain) [SEQ ID NO: 226]	19.1 pM	1.4 pM
H[Aib]HGTFTSDLSKQK([γGlu-γGlu-x53])DEEAARLFIEWLKAGGPSSGAPPPS-NH2 (reading uncertain) [SEQ ID NO: 227]	1.1 pM	1.4 pM
HXQGTFTSDLSKQKEEEAAKLFIEWLKAGGPSSGAPPPS (dSer at 2; K(γE-x53) at 14; C-terminal NH2) [SEQ ID NO: 19]	104 pM	1.9 pM
HXQGTFTSDLSKQKESEAAQDFIEWLKAGGPSSGAPPPS (dSer at 2; K(γE-x53) at 14; C-terminal NH2) [SEQ ID NO: 20]	104 pM	3.8 pM
HXQGTFTSDLSKQKESEAAQLFIEWLKAGGPSSGAPPPS (dSer at 2; K(γE-x53) at 14; C-terminal NH2) [SEQ ID NO: 21]	144 pM	3.8 pM
HXQGTFTSDLSKQKDEKAAQDFIEWLKAGGPSSGAPPPS (dSer at 2; K(γE-x53) at 14; C-terminal NH2) [SEQ ID NO: 22]	2.4 pM	1.1 pM
HXQGTFTSDLSKQKEEKKAKLFIEWLKAGGPSSGAPPPS (dSer at 2; K(γE-x53) at 14; C-terminal NH2) [SEQ ID NO: 23]	126 pM	5.6 pM
H[Aib]QGTFTSDLSKQK([γGlu-x53])ESKAAQDFIEWLKAGGPSSGAPPPS-NH2 (reading uncertain) [SEQ ID NO: 25]	40.6 pM	4.2 pM
HXQGTFTSDLSKQKESKAAQDFIEWLKAGGPSSGAPPPS (dSer at 2; K(γE-x70) at 14; C-terminal NH2) [SEQ ID NO: 26]	5.4 pM	5.1 pM
HXQGTFTSDLSKQKESKAAQLFIEWLKAGGPSSGAPPPS (dSer at 2; K(γE-x70) at 14; C-terminal NH2) [SEQ ID NO: 27]	25.1 pM	7.7 pM
HXQGTFTSDLSKQKESKAAQEFIEWLKAGGPSSGAPPPS (dSer at 2; K(γE-x53) at 14; C-terminal NH2) [SEQ ID NO: 28]	12.6 pM	5.5 pM
HXQGTFTSDLSKQKESKAAQLFIEWLKAGGPSSGAPPPS (dSer at 2; K(γE-x53) at 14; C-terminal NH2) [SEQ ID NO: 29]	87.9 pM	5.9 pM
H[Aib]QGTFTSDLSKQK([γGlu-x53])DSKAAQDFIEWLKAGGPSSGAPPPS-NH2 (reading uncertain) [SEQ ID NO: 31]	9.3 pM	1.7 pM
HXQGTFTSDLSKQKESKAAQDFIEWLKAGGPSSGAPPPS (dSer at 2; K(x53) at 14; C-terminal NH2) [SEQ ID NO: 32]	188 pM	10.2 pM
H[Aib]QGTFTSDLSKQK(x53)ESKAAQDFIEWLKAGGPSSGAPPPS-NH2 (reading uncertain) [SEQ ID NO: 33]	473 pM	11.2 pM
HXQGTFTSDLSKQKDEQAAQDFIEWLKAGGPSSGAPPPS (dSer at 2; K(γE-x53) at 14; C-terminal NH2) [SEQ ID NO: 34]	6.7 pM	1.5 pM
HXQGTFTSDLSKQKESQAAQDFIEWLKAGGPSSGAPPPS (dSer at 2; K(γE-x53) at 14; C-terminal NH2) [SEQ ID NO: 35]	14.2 pM	1.5 pM
H[Aib]QGTFTSDLSKQK([γGlu-x53])ESQAAQDFIEWLKAGGPSSGAPPPS-NH2 (reading uncertain) [SEQ ID NO: 36]	45.9 pM	2.7 pM
H[Aib]QGTFTSDLSKQK(x53)ESRRAQDFIEWLKAGGPSSGAPPPS-NH2 (reading uncertain) [SEQ ID NO: 5]	109 pM	11 pM
HXQGTFTSDLSKQKESQAAQEFIEWLKAGGPSSGAPPPS (dSer at 2; K(γE-x53) at 14; C-terminal NH2) [SEQ ID NO: 37]	12.9 pM	1.5 pM
